B1: KSHV viral interferon regulatory factor 1, wild type, Flag-tagged (vIRF1-WT-Flag) [modified: lysine propionylation at Lys406 and Lys442 and lysine acetylation, as found on vIRF1 immunoprecipitated from these cells; lysine … (parent)
chain 1: MDPGQRPNPFGAPGAIPKKPCLSQGSPGTSGSGAPCDEPSRSESPGEGPSGTGGSAAAGDITRQAVVAAITEWSRTRQLRISTGASEGKASIKDWIVCQVNSGKFPGVEWEDEERTRFRIPVTPLADPCFEWRRDGELGVVYIRERGNMPVDASFKGTRGRRRMLAALRRTRGLQEIGKGISQDGHHFLVFRVRKPEEEQCVECGVVAGAVHDFNNMARLLQEGFFSPGQCLPGEIVTPVPSCTTAEGQEAVIDWGRLFIRMYYNGEQVHELLTTSQSGCRISSALRRDPAVHYCAVGSPGQVWLPNVPNLACEIAKRELCDTLDACAKGILLTSSCNGIFCVCYHNGPVHFIGNTVPPDSGPLLLPQGKPTRIFNPNTFLVGLANSPLPAPSHVTCPLVKLWLGKPVAVGKLEPHAPSPRDFAARCSNFSDACVVLEIMPKPLWDAMQ
chain 2: MGTPKPRILPWLVSQLDLGQLEGVAWVNKSRTRFRIPWKHGLRQDAQQEDFGIFQAWAEATGAYVPGRDKPDLPTWKRNFRSALNRKEGLRLAEDRSKDPHDPHKIYEFVNSGVGDFSQPDTSPDTNGGGSTSDTQEDILDELLGNMVLAPLPDPGPPSLAVAPEPCPQPLRSPSLDNPTPFPNLGPSENPLKRLLVPGEEWEFEVTAFYRGRQVFQQTISCPEGLRLVGSEVGDRTLPGWPVTLPDPGMSLTDRGVMSYVRHVLSCLGGGLALWRAGQWLWAQRLGHCHTYWAVSEELLPNSGHGPDGEVPKDKEGGVFDLGPFIVDLITFTEGSGRSPRYALWFCVGESWPQDQPWTKRLVMVKVVPTCLRALVEMARVGGASSLENTVDLHISNSHPLSLTSDQYKAYLQDLVEGMDFQGPGES

In the test the parent is B1. Description: co-immunoprecipitation (anti-Myc IP, anti-Flag Western blot). As to conditions: with Myc-tagged IRF3 (IRF3-Myc); HEK293T cells; parent: 1.
Consider chain 1 K442R, for which the ratio to parent was found to be 0.2.

chain 1 K406R: the ratio to parent came out at 0.5.

As to chain 1 K317R K329R K370R K401R K406R K412R K442R, the ratio to parent is 0.1.

On to chain 1 K89R K93R K104R K156R K179R K195R, for which the ratio to parent was 0.7.

Source of the values: article PMC10112802.
